Where no end group is shown, it is not given here.

The target in experiment [1] is T1, epitope peptide Cys-CE3C long (also: biotin label, site not given here).
T1 peptide: CSVNVDKQPKYEYSL
Description: ELISA, supernatant IgG on anti-human IgG plate, biotin-peptide + streptavidin-HRP; titer per unit IgG. How it is done: The amount of IgG in the supernatant was determined by the following method. To evaluate the amount of IgG in the supernatant, the culture supernatant was added to an anti-human IgG antibody (manufactured by Jackson) immobilized plate, after reacting at room temperature for 3 hours, washed twice with ELISA wash buffer, and HRP-labeled anti-human IgG antibody (manufactured by Jackson) was reacted at 4° C. overnight. After washing twice with ELISA wash buffer and developing color by adding TMB-Substrate Chromogen (manufactured by Thermo Fisher Scientific), the reaction was stopped with an equal volume of 0.5N sulfuric acid, and the absorbance at 450 nm was measured to calculate (A) the dilution factor of the culture supernatant at which the OD was 1.0.
The titer of IgG in the supernatant against the epitope peptide was determined by the following method. In order to evaluate the titer of IgG in the supernatant against epitope peptides, the culture supernatant was added to an anti-human IgG antibody (manufactured by Jackson) immobilized plate, reacted for 3 hours at room temperature, and then washed twice with ELISA wash buffer, and a biotin-labeled epitope peptide (Cys-CE3C long: SEQ ID NO: 13) and Streptavidin-HRP (manufactured by PIERCE) were added and reacted overnight at 4° C. After washing twice with ELISA wash buffer and developing color by adding TMB-Substrate Chromogen (manufactured by Thermo Fisher Scientific), the reaction was stopped with an equal volume of 0.5N sulfuric acid, the absorbance at 450 nm was measured to calculate (B) the dilution ratio of the culture supernatant at which the OD was 1.0.
The titer (ratio) against the epitope peptide (Cys-CE3C long: SEQ ID NO: 13) per unit IgG amount was calculated as (B)/(A).
Background: ELISA stands for enzyme-linked immunosorbent assay.

Experiment [2] has as its target T1, epitope peptide Cys-CE3C long. Kind of experiment: competitive ELISA, unlabeled vs biotin-labeled peptide, antibody on anti-human IgG plate. The protocol:
A diluted solution of the obtained recombinant humanized antibody, a biotin-labeled immunogen peptide, and Streptavidin-HRP (manufactured by PIERCE) were added to an anti-human IgG antibody-immobilized plate, and reacted overnight at 4° C. […] Next, a recombinant human antibody at the dilution rate, a biotin-labeled immunogen peptide, and Streptavidin-HRP (manufactured by PIERCE) were added. At the same time, a dilution series of unlabeled immunogenic peptide was added and reacted overnight at 4° C. After washing twice with ELISA wash buffer, TMB-Substrate Chromogen (manufactured by Thermo Fisher Scientific) was added to develop color, the reaction was stopped with an equal amount of 0.5N sulfuric acid, and the absorbance at 450 nm was measured. The concentration of the unlabeled peptide which attenuated the signal of the biotin-labeled peptide by half was defined as the affinity (IC50).

B1: humanized 15H11 CDR graft IGKV1-39 / IGHV1-2 (R94P) (antibody, human IgG4 S228P, kappa, V domains shown)
VH: QVQLVQSGAEVKKPGASVKVSCKASGYTFTDYNMHWVRQAPGQGLEWMGRINPKNGVINSNEKFKDRVTMTRDTSISTAYMELSRLRSDDTAVYYCAPSYYGGNTDAYWGQGTLVTVSS
VL: DIQMTQSPSSLSASVGDRVTITCRASESVDNYGISFMNWYQQKPGKAPKLLIYAASSQGSGVPSRFSGSGSGTDFTLTISSLQPEDFATYYCQQSKEFPWTFGGGTKVEIKR
notes: hIgG4Pro/hIgK
With B1, the “(B)/(A) titer (ratio) against the epitope peptide per unit IgG amount” value in experiment [1] turned out to be 0.14.

B2: h15H11-28 (antibody, human IgG4 S228P, kappa, V domains shown)
VH: QVQLVQSGSELKKPGASVKVSCKASGYTFTEYNMHWVRQAPGRSLEWMGRINPKNGVINSNEKFKDRFVFSLDTSVSTAYLQISSLKAEDTAVYYCAPSYYGGNSDAYWGQGTLVTVSS
VL: DIVLTQSPASLAVSPGQRATITCRASESVDNYGISFMNWFQQKPGQPPKLLIYAASSQGSGVPARFSGSGSGTDFTLTINPMEANDTANYYCQQSKEFPWTFGGGTKVEIKR
notes: hIgG4Pro/hIgK
What is called IC50 is the concentration at which inhibition is half-maximal. B2 displayed an IC50 in experiment [2] of 0.91 nM.

B3: h15H11-37 (antibody, human IgG4 S228P, kappa, V domains shown)
VH: QVQLVQSGSELKKPGASVKVSCKASGYTFTDYNMHWVRQAPGRSLEWMGRINPKNGVINSNEKFKDRFVFSLDTSVSTAYLQISSLKAEDTAVYYCAPSYYGGNQDAYWGQGTLVTVSS
VL: DIVLTQSPASLAVSPGQRATITCRVSDSVDNYGISFLNWFQQKPGQPPKLLIYAASSQGSGVPARFSGSGSGTDFTLTINPMEANDTANYYCQQSKEFPWTFGGGTKVEIKR
notes: hIgG4Pro/hIgK
For the molecule B3, the IC50 in experiment [2] came to 1.04 nM.

B4: h15H11-43 (antibody, human IgG4 S228P, kappa, V domains shown)
VH: QVQLVQSGSELKKPGASVKVSCKASGYTFTDYNMHWVRQAPGRSLEWMGRINPKNGVINSNEKFKDRFVFSLDTSVSTAYLQISSLKAEDTAVYYCAPSYYGGNTDAYWGQGTLVTVSS
VL: DIVLTQSPASLAVSPGQRATITCRASESVDNYGFSFMNWFQQKPGQPPKLLIYAASSQGSGVPARFSGSGSGTDFTLTINPMEANDTANYYCQQSKEFPWTFGGGTKVEIKR
notes: hIgG4Pro/hIgK
For B4, in experiment [2], the IC50 came to 0.83 nM.

B5: h15H11-35 (antibody, human IgG4 S228P, kappa, V domains shown)
VH: QVQLVQSGSELKKPGASVKVSCKASGYTFTDYNMHWVRQAPGRSLEWMGRINPKNGVINSNEKFKDRFVFSLDTSVSTAYLQISSLKAEDTAVYYCAPSYYGGNQDAYWGQGTLVTVSS
VL: DIVLTQSPASLAVSPGQRATITCRASDSVDNYGISFLNWFQQKPGQPPKLLIYAASSQGSGVPARFSGSGSGTDFTLTINPMEANDTANYYCQQSKEFPWTFGGGTKVEIKR
notes: hIgG4Pro/hIgK
For B5, the IC50 in experiment [2] was 1 nM.

B6: h15H11-34 (antibody, human IgG4 S228P, kappa, V domains shown)
VH: QVQLVQSGSELKKPGASVKVSCKASGYTFTEYNMHWVRQAPGRSLEWMGRINPKNGVINSNEKFKDRFVFSLDTSVSTAYLQISSLKAEDTAVYYCAPSYFGGQSDAYWGQGTLVTVSS
VL: DIVLTQSPASLAVSPGQRATITCRASDSVDNYGISFLNWFQQKPGQPPKLLIYAASSQGSGVPARFSGSGSGTDFTLTINPMEANDTANYYCQQSKEFPWTFGGGTKVEIKR
notes: hIgG4Pro/hIgK
B6: in experiment [2], the IC50 was 0.99 nM.

B7: h15H11-41 (antibody, human IgG4 S228P, kappa, V domains shown)
VH: QVQLVQSGSELKKPGASVKVSCKASGYTFTDYNMHWVRQAPGRSLEWMGRINPKNGVINSNEKFKDRFVFSLDTSVSTAYLQISSLKAEDTAVYYCAPSYFGGNSDAYWGQGTLVTVSS
VL: DIVLTQSPASLAVSPGQRATITCRASDSVDNYGISFLNWFQQKPGQPPKLLIYAASSQGSGVPARFSGSGSGTDFTLTINPMEANDTANYYCQQSKEFPWTFGGGTKVEIKR
notes: hIgG4Pro/hIgK
For B7, the IC50 in experiment [2] came to 1.07 nM.

B8: h15H11-33 (antibody, human IgG4 S228P, kappa, V domains shown)
VH: QVQLVQSGSELKKPGASVKVSCKASGYTFTDYNMHWVRQAPGRSLEWMGRINPKNGVIQSNEKFKDRFVFSLDTSVSTAYLQISSLKAEDTAVYYCAPSYYGGNSDAYWGQGTLVTVSS
VL: DIVLTQSPASLAVSPGQRATITCRASDSVDNYGISFLNWFQQKPGQPPKLLIYAASSQGSGVPARFSGSGSGTDFTLTINPMEANDTANYYCQQSKEFPWTFGGGTKVEIKR
notes: hIgG4Pro/hIgK
B8 registered an IC50 in experiment [2] of 0.98 nM.

B9: h15H11-38 (antibody, human IgG4 S228P, kappa, V domains shown)
VH: QVQLVQSGSELKKPGASVKVSCKASGYTFTDYNMHWVRQAPGRSLEWMGRINPKNGVIKSNEKFKDRFVFSLDTSVSTAYLQISSLKAEDTAVYYCAPSYYGGNTDAYWGQGTLVTVSS
VL: DIVLTQSPASLAVSPGQRATITCRVSDSVDNYGISFLNWFQQKPGQPPKLLIYAASSQGSGVPARFSGSGSGTDFTLTINPMEANDTANYYCQQSKEFPWTFGGGTKVEIKR
notes: hIgG4Pro/hIgK
Regarding B9, the IC50 in experiment [2] amounted to 1.04 nM.

B10: h15H11-29 (antibody, human IgG4 S228P, kappa, V domains shown)
VH: QVQLVQSGSELKKPGASVKVSCKASGYTFTDYNMHWVRQAPGRSLEWMGRINPKNGVILSNEKFKDRFVFSLDTSVSTAYLQISSLKAEDTAVYYCAPSYYGGNTDAYWGQGTLVTVSS
VL: DIVLTQSPASLAVSPGQRATITCRASESVDNYGISFMNWFQQKPGQPPKLLIYAASSQGSGVPARFSGSGSGTDFTLTINPMEANDTANYYCQQSKEFPWTFGGGTKVEIKR
notes: hIgG4Pro/hIgK
In experiment [2], B10 came in with an IC50 of 0.91 nM.

B11: h15H11-40 (antibody, human IgG4 S228P, kappa, V domains shown)
VH: QVQLVQSGSELKKPGASVKVSCKASGYTFTDYNMHWVRQAPGRSLEWMGRINPKNGVINLNEKFKDRFVFSLDTSVSTAYLQISSLKAEDTAVYYCAPSYYGGNTDAYWGQGTLVTVSS
VL: DIVLTQSPASLAVSPGQRATITCRVSDSVDNYGISFLNWFQQKPGQPPKLLIYAASSQGSGVPARFSGSGSGTDFTLTINPMEANDTANYYCQQSKEFPWTFGGGTKVEIKR
notes: hIgG4Pro/hIgK
For B11, the IC50 in experiment [2] was 1.06 nM.

B12: h15H11-42 (antibody, human IgG4 S228P, kappa, V domains shown)
VH: QVQLVQSGSELKKPGASVKVSCKASGYTFTDYNMHWVRQAPGRSLEWMGRINPKNGVINSNEKFKDRFVFSLDTSVSTAYLQISSLKAEDTAVYYCAPSYYGGKTDAYWGQGTLVTVSS
VL: DIVLTQSPASLAVSPGQRATITCRASESVDNYGISFMNWFQQKPGQPPKLLIYAASSQGSGVPARFSGSGSGTDFTLTINPMEANDTANYYCQQSKEFPWTFGGGTKVEIKR
notes: hIgG4Pro/hIgK
In experiment [2], B12 displayed an IC50 of 0.83 nM.

B13: h15H11-30 (antibody, human IgG4 S228P, kappa, V domains shown)
VH: QVQLVQSGSELKKPGASVKVSCKASGYTFTDYNMHWVRQAPGRSLEWMGRINPKNGVINSNEKFKDRFVFSLDTSVSTAYLQISSLKAEDTAVYYCAPSYYGGDTDAYWGQGTLVTVSS
VL: DIVLTQSPASLAVSPGQRATITCRASDSVDNYGISFLNWFQQKPGQPPKLLIYAASSQGSGVPARFSGSGSGTDFTLTINPMEANDTANYYCQQSKEFPWTFGGGTKVEIKR
notes: hIgG4Pro/hIgK
In turn, B13 returned an IC50 in experiment [2] of 0.92 nM.

B14: h15H11-31 (antibody, human IgG4 S228P, kappa, V domains shown)
VH: QVQLVQSGSELKKPGASVKVSCKASGYTFTEYNMHWVRQAPGRSLEWMGRINPKNGVIQSNEKFKDRFVFSLDTSVSTAYLQISSLKAEDTAVYYCAPSYYGGNSDAYWGQGTLVTVSS
VL: DIVLTQSPASLAVSPGQRATITCRASESVDNYGISFMNWFQQKPGQPPKLLIYAASSQGSGVPARFSGSGSGTDFTLTINPMEANDTANYYCQQSKEFPWTFGGGTKVEIKR
notes: hIgG4Pro/hIgK
Molecule B14 came in with an IC50 in experiment [2] of 0.93 nM. This IC50 and that of the molecule before are within 1.5-fold of each other.

B15: h15H11-36 (antibody, human IgG4 S228P, kappa, V domains shown)
VH: QVQLVQSGSELKKPGASVKVSCKASGYTFTDYNMHWVRQAPGRSLEWMGRINPKNGVINLNEKFKDRFVFSLDTSVSTAYLQISSLKAEDTAVYYCAPSYYGGNTDAYWGQGTLVTVSS
VL: DIVLTQSPASLAVSPGQRATITCRASDSVDNYGISFLNWFQQKPGQPPKLLIYAASSQGSGVPARFSGSGSGTDFTLTINPMEANDTANYYCQQSKEFPWTFGGGTKVEIKR
notes: hIgG4Pro/hIgK
In experiment [2], B15 yielded a concentration for half-maximal inhibition (IC50) of 1.02 nM. This IC50 and that of the molecule before are within 1.5-fold of each other.

B16: h15H11-39 (antibody, human IgG4 S228P, kappa, V domains shown)
VH: QVQLVQSGSELKKPGASVKVSCKASGYTFTDYNMHWVRQAPGRSLEWMGRINPKNGVINYNEKFKDRFVFSLDTSVSTAYLQISSLKAEDTAVYYCAPSYYGGNTDAYWGQGTLVTVSS
VL: DIVLTQSPASLAVSPGQRATITCRASDSVDNYGISFLNWFQQKPGQPPKLLIYAASSQGSGVPARFSGSGSGTDFTLTINPMEANDTANYYCQQSKEFPWTFGGGTKVEIKR
notes: hIgG4Pro/hIgK
Molecule B16 had an IC50 in experiment [2] of 1.05 nM. This IC50 and that of the molecule before are within 1.5-fold of each other.

B17: h15H11-32 (antibody, human IgG4 S228P, kappa, V domains shown)
VH: QVQLVQSGSELKKPGASVKVSCKASGYTFTEYNMHWVRQAPGRSLEWMGRINPKNGVINSNEKFKDRFVFSLDTSVSTAYLQISSLKAEDTAVYYCAPSYYGGNSDAYWGQGTLVTVSS
VL: DIVLTQSPASLAVSPGQRATITCRVSDSVDNYGISFLNWFQQKPGQPPKLLIYAASSQGSGVPARFSGSGSGTDFTLTINPMEANDTANYYCQQSKEFPWTFGGGTKVEIKR
notes: hIgG4Pro/hIgK
Consider B17, for which, in experiment [2], the 50% inhibitory concentration (IC50) came to 0.95 nM. The IC50 values of the last two molecules are within 1.5-fold of each other.

For the origin of these results see US20250163145A1 (SHIONOGI, published 2025).
